Data on 94 variants can be found in the supplement of paper PMC10567573.

The chains are these.
B1: FUNDC2 (parent)
chain: YIKVDWQRVEKDMKKAKEQLKIRK
B2: NEK8 (parent)
chain: VTIKHVACGDFFTACLTDRGIIMT
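Further: lentivirally expressed fusions sorted by FACS into six bins by GFP to DsRed ratio, PSI derived from sequencing read proportions per bin multiplied by bin number.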

In one data set the parent is B1. Briefly: protein stability index of a GFP-peptide fusion (GPS, HEK-293T) (PSI 1-6); higher = more stable. The following applies: c terminus: a fixed tail appended.
For YIKVDWQRVEKDMKKAKEELKIRK [Q19E], the protein stability index was found to be 2.68.

Consider YIKVDWQRVEKDMKKAKEFLKIRK [Q19F], for which the protein stability index was 1.56.

On to YIKVDWQRVEKDMKKAKEYLKIRK [Q19Y], for which the protein stability index was determined as 1.8.

For YIKVDWQRVEKDMKKAKETLKIRK [Q19T], the protein stability index amounted to 2.8.

Consider YIKVDWQRVEKDMEKAKEQLKIRK [K14E], for which the protein stability index was 1.42.

Take YIKVDWQRVEKDMYKAKEQLKIRK [K14Y]: the protein stability index was determined as 4.38.

Consider YIKVDWQRVEKDMLKAKEQLKIRK [K14L], for which the protein stability index came to 2.19.

For the variant YIKVDWQRVEKDMKKAKEQLKISK [R23S], the protein stability index is 2.02.

Take YIKVDWQRVEKDMKKAKEQLKITK [R23T]: the protein stability index stood at 2.19.

Regarding YIKVDWQRVEKDMKKAKEQLKICK [R23C], the protein stability index amounted to 1.57.

With YIKVDWQRVEKDMKKAKEQLKIMK [R23M], the protein stability index was found to be 1.97.

As for YIKSDWQRVEKDMKKAKEQLKIRK [V4S], the protein stability index was determined as 2.25.

Regarding YIKLDWQRVEKDMKKAKEQLKIRK [V4L], the protein stability index worked out at 2.23.

In the case of YIKNDWQRVEKDMKKAKEQLKIRK [V4N], the protein stability index worked out at 2.13.

Consider YIKTDWQRVEKDMKKAKEQLKIRK [V4T], for which the protein stability index worked out at 1.71.

As to YIKVDWQRVEKDMKKAGEQLKIRK [K17G], the protein stability index was 2.69.

Turning to YIKVDWQRVEKDMKKADEQLKIRK [K17D], the protein stability index was 1.67.

Turning to YIKVDWQRVEKDMKKAPEQLKIRK [K17P], the protein stability index was 1.79.

As to YIKVDWQRVEKDMKKAHEQLKIRK [K17H], the protein stability index was 1.94.

Regarding YIKVDWQRVEKDMKKAQEQLKIRK [K17Q], the protein stability index was 1.65.

Take YIKVDWQRVEKDMKKVKEQLKIRK [A16V]: the protein stability index worked out at 1.38.

YIKVDWQRVEKDMKKFKEQLKIRK [A16F]: the protein stability index came out at 2.16.

Turning to YIKVDWQRVEKDMKKKKEQLKIRK [A16K], the protein stability index worked out at 1.83.

As to YIKVDWQRVGKDMKKAKEQLKIRK [E10G], the protein stability index amounted to 1.09.

Turning to YIKVDWQRVYKDMKKAKEQLKIRK [E10Y], the protein stability index stood at 1.79.

With YIKVDWQRVWKDMKKAKEQLKIRK [E10W], the protein stability index worked out at 1.56.

Consider YIKVDWQRVSKDMKKAKEQLKIRK [E10S], for which the protein stability index worked out at 2.33.

For the variant YIKVDWQRVKKDMKKAKEQLKIRK [E10K], the protein stability index came out at 1.73.

With YCKVDWQRVEKDMKKAKEQLKIRK [I2C], the protein stability index was 1.93.

For the variant YRKVDWQRVEKDMKKAKEQLKIRK [I2R], the protein stability index is 2.53.

Take YIKVHWQRVEKDMKKAKEQLKIRK [D5H]: the protein stability index was 1.64.

In the case of YIKVPWQRVEKDMKKAKEQLKIRK [D5P], the protein stability index is 2.21.

Consider YIKVQWQRVEKDMKKAKEQLKIRK [D5Q], for which the protein stability index was 1.62.

In the case of YIKVEWQRVEKDMKKAKEQLKIRK [D5E], the protein stability index came out at 1.52.

As to YIKVDWSRVEKDMKKAKEQLKIRK [Q7S], the protein stability index came to 1.76.

For YIKVDWQFVEKDMKKAKEQLKIRK [R8F], the protein stability index was found to be 1.99.

As to YIKVDWQNVEKDMKKAKEQLKIRK [R8N], the protein stability index is 1.79.

As for YIKVDWQEVEKDMKKAKEQLKIRK [R8E], the protein stability index is 2.15.

For YIKVDWQRVEKDMKKAKNQLKIRK [E18N], the protein stability index was 1.72.

On to YIKVDWQRVEKDMKKAKYQLKIRK [E18Y], for which the protein stability index was 1.84.

Turning to YIKVDWQRVEKDMKKAKKQLKIRK [E18K], the protein stability index was 1.84.

YIKVDWQRVEKDMKKAKEQEKIRK [L20E]: the protein stability index is 2.4.

Take YIKVDWQRVEKDMKKAKEQIKIRK [L20I]: the protein stability index was 2.42.

As for YIKVDWQRVEKDMKKAKEQDKIRK [L20D], the protein stability index amounted to 1.77.

In the case of YIKVDWQRVEKDMKKAKEQSKIRK [L20S], the protein stability index was 1.52.

With YIKVDWQRVEKDMKKAKEQQKIRK [L20Q], the protein stability index came to 1.42.

For YIKVDWQRVEKDMKKAKEQLEIRK [K21E], the protein stability index stood at 2.28.

YIKVDWQRVEKDMKKAKEQLFIRK [K21F]: the protein stability index came out at 1.69.

As for YIKVDWQRVEKDMKKAKEQLNIRK [K21N], the protein stability index is 1.91.

In the case of YIKVDWQRPEKDMKKAKEQLKIRK [V9P], the protein stability index is 1.81.

As for YIKVDWQREEKDMKKAKEQLKIRK [V9E], the protein stability index was found to be 2.56.

Regarding YIKVDWQRVEHDMKKAKEQLKIRK [K11H], the protein stability index stood at 1.95.

Turning to YIKVDWQRVEADMKKAKEQLKIRK [K11A], the protein stability index turned out to be 2.37.

Take YIKVDWQRVEKPMKKAKEQLKIRK [D12P]: the protein stability index was 1.45.

Turning to YIKVDAQRVEKDMKKAKEQLKIRK [W6A], the protein stability index is 3.39.

Take YIKVDCQRVEKDMKKAKEQLKIRK [W6C]: the protein stability index was 2.64.

In the case of YIKVDEQRVEKDMKKAKEQLKIRK [W6E], the protein stability index came to 2.91.

Regarding YIKVDRQRVEKDMKKAKEQLKIRK [W6R], the protein stability index is 2.97.

Take YIKVDWQRVEKDMKKAKEQLKPRK [I22P]: the protein stability index turned out to be 1.49.

Consider YIKVDWQRVEKDMKKAKEQLKMRK [I22M], for which the protein stability index amounted to 1.97.

Regarding YIKVDWQRVEKDMKKAKEQLKGRK [I22G], the protein stability index was 1.83.

In the case of YIKVDWQRVEKDMKKAKEQLKLRK [I22L], the protein stability index is 2.12.

For YIKVDWQRVEKDMKKAKEQLKFRK [I22F], the protein stability index was 2.12.

Take YIKVDWQRVEKDMKKAKEQLKWRK [I22W]: the protein stability index is 2.11.

With YIGVDWQRVEKDMKKAKEQLKIRK [K3G], the protein stability index was determined as 2.54.

For YIRVDWQRVEKDMKKAKEQLKIRK [K3R], the protein stability index amounted to 2.18.

As for YIAVDWQRVEKDMKKAKEQLKIRK [K3A], the protein stability index was found to be 2.13.

As to YIHVDWQRVEKDMKKAKEQLKIRK [K3H], the protein stability index was 1.39.

On to YILVDWQRVEKDMKKAKEQLKIRK [K3L], for which the protein stability index was determined as 1.67.

Consider YIKVDWQRVEKDTKKAKEQLKIRK [M13T], for which the protein stability index turned out to be 1.4.

YIKVDWQRVEKDWKKAKEQLKIRK [M13W]: the protein stability index was 2.29.

Consider YIKVDWQRVEKDMKHAKEQLKIRK [K15H], for which the protein stability index was 1.44.

Consider YIKVDWQRVEKDMKMAKEQLKIRK [K15M], for which the protein stability index was determined as 1.79.

Turning to YIKVDWQRVEKDMKYAKEQLKIRK [K15Y], the protein stability index stood at 2.14.

Take YIKVDWQRVEKDMKKAKEQLKIRD [K24D]: the protein stability index was 2.02.

As to YIKVDWQRVEKDMKKAKEQLKIRF [K24F], the protein stability index came out at 1.52.

WIKVDWQRVEKDMKKAKEQLKIRK [Y1W]: the protein stability index amounted to 1.99.

As for LIKVDWQRVEKDMKKAKEQLKIRK [Y1L], the protein stability index turned out to be 3.22.

In a further data set the parent is B2. Described as above. The following applies: c terminus: a fixed tail appended.
Regarding VTILHVACGDFFTACLTDRGIIMT [K4L], the protein stability index was determined as 3.2.

VTITHVACGDFFTACLTDRGIIMT [K4T]: the protein stability index turned out to be 2.17.

As to VTIWHVACGDFFTACLTDRGIIMT [K4W], the protein stability index was determined as 3.87.

Turning to VTIRHVACGDFFTACLTDRGIIMT [K4R], the protein stability index amounted to 2.47.

Take VTIYHVACGDFFTACLTDRGIIMT [K4Y]: the protein stability index was determined as 2.75.

Regarding VTICHVACGDFFTACLTDRGIIMT [K4C], the protein stability index came out at 3.59.

On to VTIDHVACGDFFTACLTDRGIIMT [K4D], for which the protein stability index stood at 2.87.

On to VTIMHVACGDFFTACLTDRGIIMT [K4M], for which the protein stability index was 1.33.

In the case of VTIVHVACGDFFTACLTDRGIIMT [K4V], the protein stability index was 1.74.

As to VTIAHVACGDFFTACLTDRGIIMT [K4A], the protein stability index was determined as 4.56.

For VTIGHVACGDFFTACLTDRGIIMT [K4G], the protein stability index amounted to 3.43.

For VTISHVACGDFFTACLTDRGIIMT [K4S], the protein stability index turned out to be 2.57.

VTIEHVACGDFFTACLTDRGIIMT [K4E]: the protein stability index turned out to be 1.58.

Consider VTINHVACGDFFTACLTDRGIIMT [K4N], for which the protein stability index is 2.03.

For the variant VTIPHVACGDFFTACLTDRGIIMT [K4P], the protein stability index amounted to 2.13.

As to VTIHHVACGDFFTACLTDRGIIMT [K4H], the protein stability index came to 2.81.
